Source: PMC8361696, “Regulation of aquaporin‐4 expression in the central nervous system investigated using M23‐AQP4 null mouse” (Glia, 2021)

Molecular target: the molecule itself
Test: native gel or EMSA; blue native PAGE (3-9% gradient) of 50 ug spinal cord lysate in BN buffer (1% Triton X-100, 12 mM NaCl, 500 mM 6-aminohexanoic acid, 20 mM Bis-Tris pH 7.0), immunoblot with anti-AQP4

B1: M1-AQP4 (M23I) of M23-null mouse spinal cord (natural protein, mouse (endogenous in spinal cord), UniProt P55088 1-323, looked up)
chain: MSDGAAARRWGKCGHSCSRESIIVAFKGVWTQAFWKAVSAEFLATLIFVLLGVGSTINWGGSENPLPVDMVLISLCFGLSIATMVQCFGHISGGHINPAVTVAMVCTRKISIAKSVFYIIAQCLGAIIGAGILYLVTPPSVVGGLGVTTVHGNLTAGHGLLVELIITFQLVFTIFASCDSKRTDVTGSIALAIGFSVAIGHLFAINYTGASMNPARSFGPAVIMGNWANHWIYWVGPIMGAVLAGALYEYVFCPDVELKRRLKEAFSKAAQQTKGSYMEVEDNRSQVETEDLILKPGVVHVIDIDRGEEKKGKDSSGEVLSSV
notes: mouse aquaporin-4, M1-AQP4 isoform with the methionine codon at position 23 replaced by isoleucine, so no M23-AQP4 is made; The mouse model is described in de Bellis et al., 2020; also called M1M23I; AQP4 of M23-null mice; source: endogenous, M23-null (CRISPR/Cas9 M23I knock-in) mouse spinal cord, lysate in BN buffer (1% Triton X-100)
stoichiometry N: 4
